{"source": "patent US8846340B2", "about": "“Carbohydrate-binding modules of a new family” (Novozymes A/S, priority 2003, dated 2014)", "key": {"[1]": {"test": "Competition binding assay with CBMX, Avicel and soluble carbohydrate", "set-up": "species or system barley", "details": "beta-glucan", "method": "(§1) Affinity of CBMX for a number of soluble carbohydrates was tested in a competition assay by mixing 100 μl CBMX with both Avicel® (400 μl 50 mg/ml in 20 mM Tris, pH 7.5) and the soluble carbohydrate (dissolved in 500 μl 20 mM Tris, pH 7.5). As references, samples without CBMX or soluble carbohydrate added were used. If CBMX has affinity for the soluble carbohydrate it should be able to keep CBMX in solution which can be measured as increase in absorbance at 280 nm compared to sample without soluble carbohydrate added. After 4 hours incubation at room temperature with agitation, samples were centrifuged and absorbance at 280 nm was read using 200 μl supernatant in the well of a microtiter UV plate. Tested soluble carbohydrates were barley β-glucan (Megazyme, low viscosity), lichenan (Megazyme, Icelandic moss), CMC (carboxymethyl cellulose 7LF, Hercules, USA), Xyloglucan (Megazyme, amyloid, from tamarind seed), lupin galactan (Megazyme) and Locust bean gum (Sigma, G-0753)."}, "[2]": {"test": "Competition binding assay with CBMX, Avicel and soluble carbohydrate", "details": "for CBMX kept in solution by soluble carbohydrate (in words): competition with Avicel", "method": "as §1"}, "[3]": {"test": "Competition binding assay with CBMX, Avicel and soluble carbohydrate", "set-up": "species or system Icelandic moss", "details": "lichenan", "method": "as §1"}, "[4]": {"test": "Competition binding assay with CBMX, Avicel and soluble carbohydrate", "set-up": "species or system tamarind", "details": "xyloglucan", "method": "as §1"}, "[5]": {"test": "Competition binding assay with CBMX, Avicel and soluble carbohydrate", "set-up": "species or system lupin", "details": "galactan", "method": "as §1"}, "[6]": {"test": "Competition binding assay with CBMX and Avicel, references without soluble carbohydrate", "details": "4 hours", "method": "as §1"}, "[7]": {"test": "Binding of CBMX to Avicel (A280 of supernatant)", "details": "for A280: Absorbance at 280 nm of 200 μl supernatant, absorbance of buffer and Avicel subtracted: 4 hours, room temperature, 20 mM Tris pH 7.5", "method": "The carbohydrate-binding domain with affinity for Avicel® and purified as described in Example 2 (CBMX) was studied further. 50 μl purified CBMX was mixed with 500 μl 20 mM Tris, pH 7.5 containing varying amount of Avicel® (0-100 mg/ml) in an Eppendorf tube. After 4 hours incubation at room temperature with agitation, the samples were centrifuged. 200 μl supernatant was transferred to the well of a microtiter plate (Costar, UV plate) and absorbance read at 280 nm on a microtiter plate reader (SpectraMax® Plus, Molecular Devices)."}, "[8]": {"test": "Binding of CBMX to PASC (A280 of supernatant)", "details": "4 hours, room temperature; for A280: Absorbance at 280 nm of 200 μl supernatant, absorbance of buffer subtracted: 20 mM Tris pH 7.5", "method": "A similar binding study was performed with PASO (Phosphoric Acid Swollen Cellulose: To 5 g Avicel® moistened with water 150 ml ice-cold 85 ortho-phosphoric acid is added. After 1 hour stirring on ice bath, 500 ml cold acetone is added. The suspension is filtered and washed, first with acetone and then with water). 50 μl purified CBMX was mixed with 500 μl 20 mM Tris, pH 7.5 containing varying amount of PASO (0-10 mg/ml) in an Eppendorf tube. Samples were incubated 4 hours at room temperature with agitation. After centrifugation, 200 μl supernatant was transferred to the well of a microtiter plate and absorbance read at 280 nm."}}}
{"molecule": "CBMX: Carbohydrate-binding module of Pseudoplectania nigrella GH61 enzyme (positions 34-174 of SEQ ID NO:2), expressed in Aspergillus oryzae, purified on Avicel (protein, listed as Pseudoplectania nigrella) SSGTSNDKAVASSSIAAVDPVTSSVVASVQVPNFTATDVPTFTATDIPTFTATDVPIFTKKPQQPSTLLTRTRTHASVSFVAKPSAFIPKPSASTIPSKPKTPEEVNKCLDAVNACITQAQSSIGGVVNFEPCESQRALCY", "values": [{"measurement": "Affinity of CBMX for soluble carbohydrate (in words)", "setting": "[1]", "value": "affinity"}, {"measurement": "CBMX kept in solution by soluble carbohydrate (in words)", "setting": "[1]; competition with Avicel", "value": "keep almost all CBMX in solution"}, {"measurement": "Affinity of CBMX for soluble carbohydrate (in words)", "setting": "[2]; CMC", "value": "affinity"}, {"measurement": "CBMX kept in solution by soluble carbohydrate (in words)", "setting": "[2]; CMC", "value": "keep almost all CBMX in solution"}, {"measurement": "Affinity of CBMX for soluble carbohydrate (in words)", "setting": "[2]; locust bean gum", "value": "affinity"}, {"measurement": "CBMX kept in solution by soluble carbohydrate (in words)", "setting": "[2]; locust bean gum", "value": "keeps the majority in solution"}, {"measurement": "Affinity of CBMX for soluble carbohydrate (in words)", "setting": "[3]", "value": "no affinity for lichenan could be detected"}, {"measurement": "CBMX kept in solution by soluble carbohydrate (in words)", "setting": "[3]; competition with Avicel", "value": "does not result in any increase in CBMX in solution"}, {"measurement": "Affinity of CBMX for soluble carbohydrate (in words)", "setting": "[4]", "value": "to some extent"}, {"measurement": "CBMX kept in solution by soluble carbohydrate (in words)", "setting": "[4]; competition with Avicel", "value": "about half of the CBMX in solution"}, {"measurement": "Affinity of CBMX for soluble carbohydrate (in words)", "setting": "[5]", "value": "to some extent"}, {"measurement": "CBMX kept in solution by soluble carbohydrate (in words)", "setting": "[5]; competition with Avicel", "value": "about half of the CBMX in solution"}, {"measurement": "Difference in A280 between samples with and without CBMX added", "setting": "[6]; None - Only Avicel (20 mg/ml) and CBMX, no soluble carbohydrate", "value": 0.018}, {"measurement": "Difference in A280 between samples with and without CBMX added", "setting": "[6]; None - Only CBMX (no Avicel, no soluble carbohydrate)", "value": 0.108}, {"measurement": "A280: Absorbance at 280 nm of 200 μl supernatant, absorbance of buffer and Avicel subtracted", "setting": "[7]; Avicel 0.0 mg/ml", "value": 0.0768}, {"measurement": "A280: Absorbance at 280 nm of 200 μl supernatant, absorbance of buffer and Avicel subtracted", "setting": "[7]; Avicel 0.391 mg/ml", "value": 0.0777}, {"measurement": "A280: Absorbance at 280 nm of 200 μl supernatant, absorbance of buffer and Avicel subtracted", "setting": "[7]; Avicel 0.781 mg/ml", "value": 0.0808}, {"measurement": "A280: Absorbance at 280 nm of 200 μl supernatant, absorbance of buffer and Avicel subtracted", "setting": "[7]; Avicel 1.563 mg/ml", "value": 0.0799}, {"measurement": "A280: Absorbance at 280 nm of 200 μl supernatant, absorbance of buffer and Avicel subtracted", "setting": "[7]; Avicel 3.125 mg/ml", "value": 0.0729}, {"measurement": "A280: Absorbance at 280 nm of 200 μl supernatant, absorbance of buffer and Avicel subtracted", "setting": "[7]; Avicel 6.25 mg/ml", "value": 0.0637}, {"measurement": "A280: Absorbance at 280 nm of 200 μl supernatant, absorbance of buffer and Avicel subtracted", "setting": "[7]; Avicel 12.5 mg/ml", "value": 0.0540}, {"measurement": "A280: Absorbance at 280 nm of 200 μl supernatant, absorbance of buffer and Avicel subtracted", "setting": "[7]; Avicel 25 mg/ml", "value": 0.0326}, {"measurement": "A280: Absorbance at 280 nm of 200 μl supernatant, absorbance of buffer and Avicel subtracted", "setting": "[7]; Avicel 50 mg/ml", "value": 0.0185}, {"measurement": "A280: Absorbance at 280 nm of 200 μl supernatant, absorbance of buffer and Avicel subtracted", "setting": "[7]; Avicel 100 mg/ml", "value": 0.0095}, {"measurement": "Binding of the protein to Avicel (in words)", "setting": "[7]; highest concentrations of Avicel, 4 hours incubation", "value": "the large majority of the protein binds"}, {"measurement": "Affinity for Avicel (in words)", "setting": "[7]; summary statement", "value": "have affinity for Avicel®"}, {"measurement": "Affinity for PASC (in words)", "setting": "[8]; 0-10 mg/ml", "value": "has affinity for PASO"}, {"measurement": "A280: Absorbance at 280 nm of 200 μl supernatant, absorbance of buffer subtracted", "setting": "[8]; PASC 0.0 mg/ml", "value": 0.0753}, {"measurement": "A280: Absorbance at 280 nm of 200 μl supernatant, absorbance of buffer subtracted", "setting": "[8]; PASC 0.625 mg/ml", "value": 0.0682}, {"measurement": "A280: Absorbance at 280 nm of 200 μl supernatant, absorbance of buffer subtracted", "setting": "[8]; PASC 1.25 mg/ml", "value": 0.0710}, {"measurement": "A280: Absorbance at 280 nm of 200 μl supernatant, absorbance of buffer subtracted", "setting": "[8]; PASC 2.5 mg/ml", "value": 0.0618}, {"measurement": "A280: Absorbance at 280 nm of 200 μl supernatant, absorbance of buffer subtracted", "setting": "[8]; PASC 5 mg/ml", "value": 0.0512}, {"measurement": "A280: Absorbance at 280 nm of 200 μl supernatant, absorbance of buffer subtracted", "setting": "[8]; PASC 10 mg/ml", "value": 0.0471}]}
